# Earlier results, collected in publication PMC6156988.
# Target: EspFu (Escherichia coli) (UniProt P0DJ88)
# UniProt P0DJ88, sequence (P0DJ88 whole entry): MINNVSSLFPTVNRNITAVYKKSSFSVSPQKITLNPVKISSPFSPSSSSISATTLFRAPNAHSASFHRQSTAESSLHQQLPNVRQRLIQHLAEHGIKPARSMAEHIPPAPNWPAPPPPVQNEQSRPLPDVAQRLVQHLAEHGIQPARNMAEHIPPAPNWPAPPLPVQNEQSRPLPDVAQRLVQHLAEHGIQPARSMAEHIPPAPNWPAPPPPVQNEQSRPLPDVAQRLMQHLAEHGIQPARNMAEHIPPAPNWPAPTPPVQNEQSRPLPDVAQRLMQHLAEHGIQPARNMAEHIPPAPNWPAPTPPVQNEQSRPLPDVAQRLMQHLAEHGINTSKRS
substance,measurement,value
IRTKS SH3 (from UniProt Q9UHR4),Kd,500 nM
